US20260184782A1 (published 2026)

B1: hTIGIT (receptor)
chain: MMTGTIETTGNISAEKGGSIILQCHLSSTTAQVTQVNWEQQDQLLAICNADLGWHISPSFKDRVAPGPGLGLTLQSLTVNDTGEYFCIYHTYPDGTYTGRIFLEVLESSVAEHGARFQIP
- Kd (TIGIT55-05): 97.6 nM
- Kd (TIGIT55-11): 327 nM
- Kd (TIGIT55-06): 153 nM
- Kd (TIGIT55-13): 112 nM
- Kd (TIGIT55-14): 139 nM
- Kd (TIGIT55-01): 15.9 nM
